Measurements reported in the nanobody polyreactivity screen of Harvey et al. (2022).

Test: yeast display, Sf9 membrane polyspecificity reagent, FACS + sequencing; frameworks hold sequencing errors
How it was run: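 Galactose-induced (36–48 hours) yeast carrying a synthetic nanobody display library were exposed to 10% biotinylated, detergent-solubilized Sf9 membrane reagent at 4 °C for 1 hour. FACS followed streptavidin microbead enrichment, using low and high (top ~1%) gates for expression (anti-HA) and reagent binding (streptavidin). Colony PCR, MiSeq 2 × 250 sequencing and CDR-length filtering followed. Labels for polyreactivity reflect the gate of origin.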

Sequence	polyreactivity (PSR sort gate)
QVQLGESGGGIVQAGGSLRLSCAASGRTFPYNVMGWYRQAPGKERELVAGITGSGDSTFYADSVKGRFTISRDHAKNTVYLQMNSLKPEDTAVYYCAARYRTLNDGYIRNYWGQGTQVTVSS	low polyreactivity
QVQLVESGGGLVQAGGSLRLSCAASGSIFPYYALGWYRQAPGKERELVAAISWSGTSTYYADSVKGRFTISRDNAKNTVYLQMNSLKPEDTAVYYCNAGYYHFYASGYDYWGQGTQVTVSS	low polyreactivity
QVQLVESGGRLVQAGGSLRLSCAASGFIFDSYAMGWYRQAPGKERELVAAISWSGGRTYYADSVKGRFTISRDNAKNTVYLQMNSLKPEDTAVYYCNVRTKLSTSYDYWGQGTQVTVSS	high polyreactivity
QVQLVESGGGLVQAGGSLRLSCAASGSIFVYNPMGSYREPPGKERELVAAISQRGGSTYYADSVKGRFTISRDNANNTVYLQMYSLKPEDTAVYYCAAGPGDSGDDYWGQGTQVTVSS	low polyreactivity
QVQLVESGGGLVQAGGSLRLSCAASGFTFYRYAMGWYRQAPGKERELVAVITRGGSTNYADSVKGRFTISRDNAKNTVYLQMNSLKPEDTAVYYCAARWFAGDWDYWYDYWGQGTQVTVSS	low polyreactivity
QGQLVESGGGLVQAGGSLRLSCAASGRNFRINDMGWYRQAPGKERELVAAITWSGGSTYYADSVKGRCPISRDNAKNTVYLQMHSLKPEDTAVYYCAADQAYFWGYYYWGQGTQVTVSS	low polyreactivity
QVQLVDSGGGLVQAGGSLRLSCAASGFTIHYKAMGWYRQAPGKERELVATISKSAGITSYADSVKGRFTISRDNAKNTVYLQMNSLNPEDTAVYYCAADKSYRRVYYWGQGTQVTVSS	low polyreactivity
QVQLVESGGGLVQAGGSLRLSCAASGSIFAAYAMGWYRQAPGKERELVAVINSRGGITSYADSVKGRFTISRDNAKNTVYLQMNSLKPEDTAVYYCAARPWYSWRYDYWGQGTQVTVSS	high polyreactivity
QVQLVESGGGLVQAGGSLRLSCAASGSIIFRYAMGWSRQAPGKERELVARISWGGGRTYYADSVKGRFTISRDNAQNTVYLQMNSLKPEDSAVYYCNRAFWVNPGGFDYWGQGTQVTVSS	high polyreactivity
QVQLVESGGGLVQAGGSLRLTCAASGSTFAFYAMGWYRQAPGKERELVAAITLIGGNTYYADSVKGRFTISRDNAKNTVYLQMYSLKPEDTAVYYFAAGGYYVRYPKSWYNYWGQGTQVTVSS	low polyreactivity
QVQLVESGGGLVQAGGSLRLSCAASGRTFYPYAMGWYRQAPGKERELVAAISSGGSTTYADSVKGRFTISRDNAKNTVYLQMNSLKPEDTAVYYCAVYGTERLAFDYWGQGTQVTVSS	low polyreactivity
QVQLVESGGGLVQAGGSLRLSCASSGITFRYYAMGWYRQAPGKERELVAAITWSGGSTYYADSVKGRFTISRDNAKNTVYLQMNSLKPEDTAVYYCAADAYVLFYGDWYEFDYWGQGTQVTVSS	high polyreactivity
QVQLVESGGGLVQAGGSLRLSCAASGRIFRYNAMGWYRQAPGKERELVATISKSGGSTYYADSVKGRFTISRDNANYTVYLQMNSLKPEDTAVYYCAASYHPWLADYGYWGQGTQVSVSS	low polyreactivity
QVQLVESGGGLVQAGGSLRLSCAASGRIIDRNAMGWYRQAPGKERELFAAISSSGSTNYADSVKGRFTISRDNAKNTVYLQMNSLKPEDTAVYYCAARWRYVLAAGTRPVSFDYWGQGTQVTVSS	low polyreactivity
QDQLVESGGGLVQAGCSLRLSCAASGFIFPNYAMGWYRQAPGKERELVAAISTDGSTNYADSVKGRFTISRDNAKTTVYLQMNSLKTEDTAVYYCAKYGRVKPQRYDYDYWGQGTQVTVSS	high polyreactivity
QVQLVESGGGLVQAGGSLRLSCAASGSIFITNAMGWYRQAPGKERELVAAISGRGGSTYSADSVKGRFTISRDNAKNTVYLQMNSLKPEDTAVYYCNAYSYRVSGYDYWGQGTQVTVSS	high polyreactivity
QVQLVESGGGLVQAGGSLRLSCAASGSTFYRYAMGWYRQAPGKERELVAAISSDGTTYYADSVKGRFTISRDNAKNTVYLQMNCLNPVDTAVYYCAKERSRYYPYDYWGQGTQVTVSS	high polyreactivity
QVQLVESGGGLVQAGGSLRLSCAASGRTFYPNAMGWYRQAPGKERELVARITTRGGSTYYADSVKGRFTISRDNAKNTVYLQMNSLKPEATAVYYCAVDYNSDWAYDYWGQGTQVTVSS	high polyreactivity
QVQLVESGGGLVQAGGSLRLSCASSGFTFTYNVMGWYRQAPGKERELVAAISWSGTSTSYADSVKGRFTISRDNAKNTVYLQMNSLNPEDTAVYYCAVQRKSSKRAFRYGYWGQGTQVTVSS	high polyreactivity
QVPLVESGGGLVEAGGSLRLSCDASGGIFRGYAKGWYRQAPGKERDLVAAISRGGGSTYYADSVKGRFTISRDNAKNTVYLQLNSLKPEDTAVYYCAAIYTRVYDPVTEFYYWGQGTQVTVSS	high polyreactivity
QVQLVESGGGLVQAGGSLRLSCAASGLIFVDNAMGLYRQAPGKERELVAAIDSGGSTNYADSVKGRFTISRDNAKTTVYLQMNSLNPEDTAVYYCAADWIYAPWYYQESVEYYYWGQGTQVTVSS	low polyreactivity
